{
  "source": "the supplement of paper PMC9170038",
  "data": [
    {"tested_on": "MS2 coat protein", "assay": "apparent KD of MS2 coat protein; higher = weaker reporter binding", "conditions": "Eterna round: R107; input ligand: theophylline 2 mM", "procedure": "(§1)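 RNA-MaP round R107: designed RNA switches with theophylline, tryptophan, arginine or FMN aptamers are transcribed on-chip within common flanks. They are titrated with SNAP-549-labelled MS2 coat protein in RNA-MaP buffer (100 mM Tris pH 7.5, 80 mM KCl, 4 mM MgCl2), without ligand or with the indicated ligand. Median apparent KD per design.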", "units": {"apparent KD of MS2 coat protein": "nM"}, "values": [
      {"sequence": "AUAACAUGAGGAUCACCCAUGUAAGCAGAUACCAGCUAGGAAACUAGCCCUUGGCAGCUGCAAUCAUGGGUGUUUGCAGCUGCAA [(M1)-(M2)-(T1)-(T2)-(M)'-(T)'_Design2]", "apparent KD of MS2 coat protein": 19.9},
      {"sequence": "AUAUAUACAUGAGGAUCACCCAUGUUAUUUCGAGGACCGGUACGGCCGCCACUCGAUAGAGUGGAAGUAACAUUUGUUAGAUGAU [JR_SSTryptoA_Sub013]", "apparent KD of MS2 coat protein": 16.3},
      {"sequence": "AAUGUAUGGCACAUGAGGAUCACCCAUGUGCGAGGACCGGUACGGCCGCCACUCGGUCCUGGGUUCUUAUUACUAUACAUUAAUG [XTryp A #15]", "apparent KD of MS2 coat protein": 14.4},
      {"sequence": "GGGCAAGAGGGAAGGAGCGUCGGCUGAGUAACAUGAGGAUCACCCAUGUAGCACAUAGUGUGGCAGGUAGGUCGCCCUCUGCCCU [SS-ArgB7]", "apparent KD of MS2 coat protein": 13.7},
      {"sequence": "GCUAGGUCAUCGGCCGCCACUAACGACGGUUCGAACAUGAGGAUCACCCAUGUGCCACAUGCGCAUAGGACCGGGAUGACCUAGC [SSTB NP+V+V2 #6]", "apparent KD of MS2 coat protein": 21.2},
      {"sequence": "UGGACGCAACGAGCACGAGGUCGGCAGCUACGAGGACCGGUACGGCCGCCACUCGAGUUACGACAUGAGGAUCACCCAUGUAAGG [theeternabot_exclusion_MS2_Trp_A_45]", "apparent KD of MS2 coat protein": 51.8},
      {"sequence": "GACAUGAGGAUCACCCAUGUACCGCGAGAAGGAGCGCGGAUAAACGCAGGUAGGUCGCUCGUGGGCUUAUAUUCAAUUGUAAGCU [Usence]", "apparent KD of MS2 coat protein": 44.6}
    ]},
    {"tested_on": "MS2 coat protein", "assay": "apparent KD of MS2 coat protein; higher = weaker reporter binding", "conditions": "Eterna round: R107; input ligand: tryptophan 2.4 mM", "procedure": "as §1", "units": {"apparent KD of MS2 coat protein": "nM"}, "values": [
      {"sequence": "UUUACGGGAAACCGAACUAAACAAAGGGAAGGAGCGCCAAACAAGGCAGGUAGGUCGCCCACAUGAGGAUCACCCAUGUGUUGGG [Exclusion Arginine A GF 25]", "apparent KD of MS2 coat protein": 53.2},
      {"sequence": "UGCGUACAUGAGGAUCACCCAUGUAUAGAUACCAGUCACCCAUGUGGCCCUUGGCAGCUAACAUGAGGAUCACUACAUGAGGAUC [Exclusion Theophylline A 3]", "apparent KD of MS2 coat protein": 32.7},
      {"sequence": "ACGUAAUGCGGAAGGAGCGUCAUUUUAAAACAUGAGGAUCACCCAUGUAAUAUUUUUGUGUGACAGGUAGGUCGCCGAAGUACGA [#07 Same State - Arginine B]", "apparent KD of MS2 coat protein": 13.6},
      {"sequence": "ACAUGAGGAUCACCCAUGUCAGGGCACGAUACCAGCUGAUCCGGUGGCCCUUGGCAGCGUGACGUUUGGUCCCGCGGAUCACACG [xxmullin]", "apparent KD of MS2 coat protein": 404},
      {"sequence": "UAUCCACAUGAGGAUCACCCAUGUAAGGAAGGAGCGGUGAAUGCACCAGGUAGGUCGCCUUGCUGAGGACAGCCGGUGGAUUCGU [Exclusion - Arginine A (Freestyle 24)]", "apparent KD of MS2 coat protein": 16.2},
      {"sequence": "AAAAGUAGGUCCAAUAAAACUACAUGUGAAGGAGCGCCCGAAAGGGCAGGUAGGUCGCACAUGAGGAUCACCCAUGUCCUACAAA [ArgEX 7 #OpenEnded]", "apparent KD of MS2 coat protein": 71.8},
      {"sequence": "ACCUGUACGAAAAGUGCAGGACACGGAAUACGAGGACCGGUACGGCCGCCACUCGGAACCUGAGGAUCACCCUGGUAAAACCGUG [TrypAS 13 #AlternativeMS2 #Zipper #StaticStem]", "apparent KD of MS2 coat protein": 19.5},
      {"sequence": "GGCGCGAGCCAACAUGAGGAUCACCCAUGUCGAGGACCGGUACGGCCGCCACUCGAACGAGUGGCGCGCGCGCGCGCGCGCGCGC [Vaa]", "apparent KD of MS2 coat protein": 28.6},
      {"sequence": "AGCGUAUAGACGGAUACCAGCGCCGAUUAACAUGAGGAUCACCCAUGUAGUGUGGGUGGACGCCCUUGGCAGCCGAGUAUAGGUA [#07 Exclusion-TheophyllineB]", "apparent KD of MS2 coat protein": 221},
      {"sequence": "ACAUGAAUAUCAUCUAUUUAUUGUACUGAAGGAGCGUCCAUGAGGACAGGUAGGUCGCAGUGUAAAACAUGAGGAUCACCCAUGU [Same State - Arginine A #1]", "apparent KD of MS2 coat protein": 23},
      {"sequence": "CGUAUUACGAAAGUAGUACGUAGUUCGAGUCGAGGACCGGUACGGCCGCCACUCGGACAUGAGGAUCACCCAUGUAGCGAAAGCU [Tryptophan A 23]", "apparent KD of MS2 coat protein": 72.4},
      {"sequence": "UUGGGUUUGUGAAGGAGCGGGAAAGAUAUAUAUUUAAUCCUAACAUGAGGAUCACCCAUGUCCCAGGUAGGUCGCGCGGGUUUGG [12.O]", "apparent KD of MS2 coat protein": 46.9},
      {"sequence": "UAGCGAUAAUCUGAUACCAGACGUGUACUCUCCUCAGACAUGAGCAUCAGCCAUGUAUGCGUCCCUUGGCAGCAGAGAUAGGAGA [Theo B Ex t5b]", "apparent KD of MS2 coat protein": 16.9},
      {"sequence": "AAAUAAAUAACUGAUACCAGUGGACUGACAUGAGGAUCACCCAUGUUGGGUUUUGUUGUCCACCCUUGGCAGCAGGGAUAUAAAA [#24 Exclusion-TheophyllineB]", "apparent KD of MS2 coat protein": 43.4},
      {"sequence": "GUAUAUAUGCGAAGGAGCGGGAAAUAUAUAUAUAUAAUCCUAACAUGAGGAUCACCCAUGUCCCAGGUAGGUCGCGCAUAUAUAU [12.B]", "apparent KD of MS2 coat protein": 76.1},
      {"sequence": "UGACAGAUAACCGCUGGUGCUCUUGAGUUGCGAGGACCGGUACGGCCGCCACUCGACAACAUGAGGAUCACCCAUGUUGCGGGUC [Soleeror]", "apparent KD of MS2 coat protein": 85.1},
      {"sequence": "GUAGGUCACCUCAUGAGACCUACCCUGGAAGGAGCGAGCGAAAGCUCAGGUAGGUCGCCAGAAACAUGAGGAUCACCCAUGUAAU [(A)''-(M)'-(A)'-(Arg1)-(Arg2)-(M1)-(M2)_Design3]", "apparent KD of MS2 coat protein": 44.6},
      {"sequence": "UGUAUGUGAUCUGAUACCAGUCCAACUGGUAAACCAUGAGGAUCACCCAUGGAAAAUUGGGACCCUUGGCAGCAGAUCGCAUACU", "apparent KD of MS2 coat protein": 322},
      {"sequence": "AUAACAUGAGGAUCACCCAUGUAAGCAGAUACCAGCUAGGAAACUAGCCCUUGGCAGCUGCAAUCAUGGGUGUUUGCAGCUGCAA [(M1)-(M2)-(T1)-(T2)-(M)'-(T)'_Design2]", "apparent KD of MS2 coat protein": 13},
      {"sequence": "AAUGUAUGGCACAUGAGGAUCACCCAUGUGCGAGGACCGGUACGGCCGCCACUCGGUCCUGGGUUCUUAUUACUAUACAUUAAUG [XTryp A #15]", "apparent KD of MS2 coat protein": 27.1},
      {"sequence": "GGGCAAGAGGGAAGGAGCGUCGGCUGAGUAACAUGAGGAUCACCCAUGUAGCACAUAGUGUGGCAGGUAGGUCGCCCUCUGCCCU [SS-ArgB7]", "apparent KD of MS2 coat protein": 13.2},
      {"sequence": "GCUAGGUCAUCGGCCGCCACUAACGACGGUUCGAACAUGAGGAUCACCCAUGUGCCACAUGCGCAUAGGACCGGGAUGACCUAGC [SSTB NP+V+V2 #6]", "apparent KD of MS2 coat protein": 11.7},
      {"sequence": "GACAUGAGGAUCACCCAUGUACCGCGAGAAGGAGCGCGGAUAAACGCAGGUAGGUCGCUCGUGGGCUUAUAUUCAAUUGUAAGCU [Usence]", "apparent KD of MS2 coat protein": 30.4}
    ]},
    {"tested_on": "K4 kissing-loop RNA reporter", "assay": "apparent KD of K4 kissing-loop reporter; higher = weaker reporter binding", "conditions": "Eterna round: R107; input ligand: FMN 200 uM", "procedure": "as §1, with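 “a labelled K4 kissing-loop RNA reporter” for “SNAP-549-labelled MS2 coat protein”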", "units": {"apparent KD of K4 kissing-loop reporter": "nM"}, "values": [
      {"sequence": "AAGGUUGUGCAUGGGAGUGAUGUUCCCAAGCAGGAUAUCGCUCACGCGAGAAGGGCUAGCACAACCGCUCAAGAAACUUGAGCAA [Omei KL FMN A SS C v5]", "apparent KD of K4 kissing-loop reporter": 121}
    ]},
    {"tested_on": "K4 kissing-loop RNA reporter", "assay": "apparent KD of K4 kissing-loop reporter; higher = weaker reporter binding", "conditions": "Eterna round: R107; input ligand: arginine 13.2 mM", "procedure": "as §1, with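 “a labelled K4 kissing-loop RNA reporter” for “SNAP-549-labelled MS2 coat protein”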", "units": {"apparent KD of K4 kissing-loop reporter": "nM"}, "values": [
      {"sequence": "AAGGUUGUGCAUGGGAGUGAUGUUCCCAAGCAGGAUAUCGCUCACGCGAGAAGGGCUAGCACAACCGCUCAAGAAACUUGAGCAA [Omei KL FMN A SS C v5]", "apparent KD of K4 kissing-loop reporter": 118}
    ]},
    {"tested_on": "K4 kissing-loop RNA reporter", "assay": "apparent KD of K4 kissing-loop reporter; higher = weaker reporter binding", "conditions": "Eterna round: R107; input ligand: none", "procedure": "as §1, with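 “a labelled K4 kissing-loop RNA reporter” for “SNAP-549-labelled MS2 coat protein”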", "units": {"apparent KD of K4 kissing-loop reporter": "nM"}, "values": [
      {"sequence": "AAGGUUGUGCAUGGGAGUGAUGUUCCCAAGCAGGAUAUCGCUCACGCGAGAAGGGCUAGCACAACCGCUCAAGAAACUUGAGCAA [Omei KL FMN A SS C v5]", "apparent KD of K4 kissing-loop reporter": 147}
    ]},
    {"tested_on": "K4 kissing-loop RNA reporter", "assay": "apparent KD of K4 kissing-loop reporter; higher = weaker reporter binding", "conditions": "Eterna round: R107; input ligand: theophylline 20 uM", "procedure": "as §1, with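 “a labelled K4 kissing-loop RNA reporter” for “SNAP-549-labelled MS2 coat protein”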", "units": {"apparent KD of K4 kissing-loop reporter": "nM"}, "values": [
      {"sequence": "AAGGUUGUGCAUGGGAGUGAUGUUCCCAAGCAGGAUAUCGCUCACGCGAGAAGGGCUAGCACAACCGCUCAAGAAACUUGAGCAA [Omei KL FMN A SS C v5]", "apparent KD of K4 kissing-loop reporter": 132}
    ]},
    {"tested_on": "K4 kissing-loop RNA reporter", "assay": "apparent KD of K4 kissing-loop reporter; higher = weaker reporter binding", "conditions": "Eterna round: R107; input ligand: tryptophan 2.4 mM", "procedure": "as §1, with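 “a labelled K4 kissing-loop RNA reporter” for “SNAP-549-labelled MS2 coat protein”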", "units": {"apparent KD of K4 kissing-loop reporter": "nM"}, "values": [
      {"sequence": "AAGGUUGUGCAUGGGAGUGAUGUUCCCAAGCAGGAUAUCGCUCACGCGAGAAGGGCUAGCACAACCGCUCAAGAAACUUGAGCAA [Omei KL FMN A SS C v5]", "apparent KD of K4 kissing-loop reporter": 120}
    ]}
  ]
}
